# Data: paper doi:10.1101/2025.11.20.689565, “Phosphorylation remodels the mitotic centrosome matrix to generate bipartite γ-tubulin complex docking sites” (bioRxiv, 2025)
# T1: untagged SPD-5 aa 101-473, not phosphorylated (C. elegans, UniProt P91349 101-473)
# T1 construct: source: E. coli BL21(DE3) pLysS, purified (glutathione agarose, cleaved off GST)
# T1 sequence (looked up): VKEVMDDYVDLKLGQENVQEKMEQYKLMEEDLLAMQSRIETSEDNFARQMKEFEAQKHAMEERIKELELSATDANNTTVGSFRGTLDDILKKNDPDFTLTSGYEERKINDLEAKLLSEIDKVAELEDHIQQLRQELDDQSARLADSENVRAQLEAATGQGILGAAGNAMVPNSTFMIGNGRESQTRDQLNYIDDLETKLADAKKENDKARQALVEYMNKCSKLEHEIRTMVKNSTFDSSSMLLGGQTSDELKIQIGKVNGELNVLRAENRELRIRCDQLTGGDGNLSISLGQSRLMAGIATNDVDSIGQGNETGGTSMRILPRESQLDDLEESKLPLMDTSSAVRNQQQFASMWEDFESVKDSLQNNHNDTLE
# Tests used:
# [1] = target: the molecule itself; experiment: SEC-MALS; Superose 6 increase 10/300 or Superdex 200 increase 10/300 in 20 mM Tris-HCl pH 7.5, 50 mM NaCl, 5 mM EGTA, 2 mM MgCl2, 1 mM DTT; 120 μL of ~2.0 mg/ml protein loaded; with or without PLK1 phosphorylation
# [2] = target: T1, untagged SPD-5 aa 101-473, not …; experiment: pull-down; MBP pull-down: purified SPD-5 fragments mixed at 2.0 μM with or without 500 nM PLK1(T194D) in kinase buffer 1 h at 23°C; then 75 nM each with 2 μg anti-MBP antibody in lysis buffer 2 h at 4°C and protein A beads 1 h at 4°C; five washes; immunoblot or Coomassie; conditions: both partners purified
Binder,stoichiometry N [1],binding result [2]
"MBP-6His-HA (M6HH)-tagged SPD-5 aa 1-345, not phosphorylated (domain or fragment, C. elegans, UniProt P91349 1-345, looked up, source: E. coli BL21(DE3) pLysS, purified (Ni-NTA)) MEDNSVLNEDSNLEHVEGQPRRSMSQPVLNVEGDKRTSSTSATQQQVLSGAFSSADVRSIPIIQTWEENKALKTKITILRGELQMYQRRYSEAKEASQKRVKEVMDDYVDLKLGQENVQEKMEQYKLMEEDLLAMQSRIETSEDNFARQMKEFEAQKHAMEERIKELELSATDANNTTVGSFRGTLDDILKKNDPDFTLTSGYEERKINDLEAKLLSEIDKVAELEDHIQQLRQELDDQSARLADSENVRAQLEAATGQGILGAAGNAMVPNSTFMIGNGRESQTRDQLNYIDDLETKLADAKKENDKARQALVEYMNKCSKLEHEIRTMVKNSTFDSSSMLLGG",2,–
"untagged SPD-5 aa 1-473, not phosphorylated (domain or fragment, C. elegans, UniProt P91349 1-473, looked up, also called SPD-5 N-terminus; source: E. coli BL21(DE3) pLysS, purified (glutathione agarose, cleaved off GST)) MEDNSVLNEDSNLEHVEGQPRRSMSQPVLNVEGDKRTSSTSATQQQVLSGAFSSADVRSIPIIQTWEENKALKTKITILRGELQMYQRRYSEAKEASQKRVKEVMDDYVDLKLGQENVQEKMEQYKLMEEDLLAMQSRIETSEDNFARQMKEFEAQKHAMEERIKELELSATDANNTTVGSFRGTLDDILKKNDPDFTLTSGYEERKINDLEAKLLSEIDKVAELEDHIQQLRQELDDQSARLADSENVRAQLEAATGQGILGAAGNAMVPNSTFMIGNGRESQTRDQLNYIDDLETKLADAKKENDKARQALVEYMNKCSKLEHEIRTMVKNSTFDSSSMLLGGQTSDELKIQIGKVNGELNVLRAENRELRIRCDQLTGGDGNLSISLGQSRLMAGIATNDVDSIGQGNETGGTSMRILPRESQLDDLEESKLPLMDTSSAVRNQQQFASMWEDFESVKDSLQNNHNDTLE",2,–
"untagged SPD-5 aa 1-473, PLK1-phosphorylated (domain or fragment, C. elegans, UniProt P91349 1-473, looked up, phosphorylated in vitro by PLK1(T194D); sites not all mapped (predicted PLK1 sites S5, S11, S170, T178, T198, T274, T335, S339, S340), source: E. coli BL21(DE3) pLysS, purified (glutathione agarose, cleaved off GST); incubated with PLK1-6His and ATP) MEDNSVLNEDSNLEHVEGQPRRSMSQPVLNVEGDKRTSSTSATQQQVLSGAFSSADVRSIPIIQTWEENKALKTKITILRGELQMYQRRYSEAKEASQKRVKEVMDDYVDLKLGQENVQEKMEQYKLMEEDLLAMQSRIETSEDNFARQMKEFEAQKHAMEERIKELELSATDANNTTVGSFRGTLDDILKKNDPDFTLTSGYEERKINDLEAKLLSEIDKVAELEDHIQQLRQELDDQSARLADSENVRAQLEAATGQGILGAAGNAMVPNSTFMIGNGRESQTRDQLNYIDDLETKLADAKKENDKARQALVEYMNKCSKLEHEIRTMVKNSTFDSSSMLLGGQTSDELKIQIGKVNGELNVLRAENRELRIRCDQLTGGDGNLSISLGQSRLMAGIATNDVDSIGQGNETGGTSMRILPRESQLDDLEESKLPLMDTSSAVRNQQQFASMWEDFESVKDSLQNNHNDTLE",2,–
"MBP-6His-HA (M6HH)-tagged SPD-5 aa 1-473, not phosphorylated (domain or fragment, C. elegans, UniProt P91349 1-473, looked up, source: E. coli BL21(DE3) pLysS, purified (Ni-NTA)) MEDNSVLNEDSNLEHVEGQPRRSMSQPVLNVEGDKRTSSTSATQQQVLSGAFSSADVRSIPIIQTWEENKALKTKITILRGELQMYQRRYSEAKEASQKRVKEVMDDYVDLKLGQENVQEKMEQYKLMEEDLLAMQSRIETSEDNFARQMKEFEAQKHAMEERIKELELSATDANNTTVGSFRGTLDDILKKNDPDFTLTSGYEERKINDLEAKLLSEIDKVAELEDHIQQLRQELDDQSARLADSENVRAQLEAATGQGILGAAGNAMVPNSTFMIGNGRESQTRDQLNYIDDLETKLADAKKENDKARQALVEYMNKCSKLEHEIRTMVKNSTFDSSSMLLGGQTSDELKIQIGKVNGELNVLRAENRELRIRCDQLTGGDGNLSISLGQSRLMAGIATNDVDSIGQGNETGGTSMRILPRESQLDDLEESKLPLMDTSSAVRNQQQFASMWEDFESVKDSLQNNHNDTLE",2,–
"MBP-6His-HA (M6HH)-tagged SPD-5 aa 1-101, not phosphorylated (domain or fragment, C. elegans, UniProt P91349 1-101, looked up, also called PRGB1; source: E. coli BL21(DE3) pLysS, purified (Ni-NTA)) MEDNSVLNEDSNLEHVEGQPRRSMSQPVLNVEGDKRTSSTSATQQQVLSGAFSSADVRSIPIIQTWEENKALKTKITILRGELQMYQRRYSEAKEASQKRV",–,binds
